Measurements reported in paper PMC8934654, “Structural characterization of the ANTAR antiterminator domain bound to RNA”.

T1: EutV (Enterococcus faecalis, UniProt A0A1Q1FU69 1-190)
T1 sequence: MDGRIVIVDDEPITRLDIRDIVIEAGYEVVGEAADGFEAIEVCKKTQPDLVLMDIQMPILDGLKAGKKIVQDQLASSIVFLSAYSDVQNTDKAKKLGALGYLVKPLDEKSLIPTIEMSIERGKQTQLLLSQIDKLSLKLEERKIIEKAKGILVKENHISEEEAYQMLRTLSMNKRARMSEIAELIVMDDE


How the values were obtained:
EutV [1] = molecular target: T1, EutV; experiment: SPR; settings: SPR: 10 mM HEPES pH 7, 150 mM NaCl, 0.05% Tween-20, 2.5 mM MgCl2, 4 C; EMSA: 25 mM HEPES pH 7.5, 150 mM NaCl, 10 mM MgCl2, 4 C, 25 nM RNA
EutV [2] = molecular target: T1, EutV; experiment: SPR; unphosphorylated, CM5 streptavidin chip, n=6; SPR: 10 mM HEPES pH 7, 150 mM NaCl, 0.05% Tween-20, 2.5 mM MgCl2, 4 C; EMSA: 25 mM HEPES pH 7.5, 150 mM NaCl, 10 mM MgCl2, 4 C, 25 nM RNA; settings: protein: recombinant; tags: none (His-tag cleaved by TEV); chain copies: 2; label: 3' biotin-TEG; two hairpins with hexaloops P1 and P2
EutV M172A = EutV M172A (Enterococcus faecalis, UniProt A0A1Q1FU69 1-190, M172A); experiment: SPR; 2.5 mM MgCl2; SPR: 10 mM HEPES pH 7, 150 mM NaCl, 0.05% Tween-20, 2.5 mM MgCl2, 4 C; EMSA: 25 mM HEPES pH 7.5, 150 mM NaCl, 10 mM MgCl2, 4 C, 25 nM RNA; settings: protein: recombinant; chain copies: 2; label: 3' biotin-TEG; two hairpins with hexaloops P1 and P2
EutV N173A/R175A/R177A = EutV N173A/R175A/R177A (Enterococcus faecalis, UniProt A0A1Q1FU69 1-190, N173A;R175A;R177A); experiment: as above; settings: protein: recombinant; chain copies: 2; label: 3' biotin-TEG; two hairpins with hexaloops P1 and P2
EutV [3] = molecular target: T1, EutV; experiment: SPR; CAPture chip, 2.5 mM MgCl2, n=8; SPR: 10 mM HEPES pH 7, 150 mM NaCl, 0.05% Tween-20, 2.5 mM MgCl2, 4 C; EMSA: 25 mM HEPES pH 7.5, 150 mM NaCl, 10 mM MgCl2, 4 C, 25 nM RNA; settings: protein: recombinant; tags: none (His-tag cleaved by TEV); chain copies: 2; label: 3' biotin-TEG; two hairpins with hexaloops P1 and P2
EutV R142A = EutV R142A (Enterococcus faecalis, UniProt A0A1Q1FU69 1-190, R142A); experiment: SPR; 2.5 mM MgCl2; SPR: 10 mM HEPES pH 7, 150 mM NaCl, 0.05% Tween-20, 2.5 mM MgCl2, 4 C; EMSA: 25 mM HEPES pH 7.5, 150 mM NaCl, 10 mM MgCl2, 4 C, 25 nM RNA; settings: protein: recombinant; chain copies: 2; label: 3' biotin-TEG; two hairpins with hexaloops P1 and P2
EutV Y164A = EutV Y164A (Enterococcus faecalis, UniProt A0A1Q1FU69 1-190, Y164A); experiment: as above; settings: protein: recombinant; chain copies: 2; label: 3' biotin-TEG; two hairpins with hexaloops P1 and P2
EutV E160A = EutV E160A (Enterococcus faecalis, UniProt A0A1Q1FU69 1-190, E160A); experiment: as above; settings: protein: recombinant; chain copies: 2; label: 3' biotin-TEG; two hairpins with hexaloops P1 and P2
EutV K143A/K147A = EutV K143A/K147A (Enterococcus faecalis, UniProt A0A1Q1FU69 1-190, K143A;K147A); experiment: as above; settings: protein: recombinant; chain copies: 2; label: 3' biotin-TEG; two hairpins with hexaloops P1 and P2

Molecule | Kd (EutV [1]) | Kd (EutV [2]) | binding result (EutV M172A) | binding result (EutV N173A/R175A/R177A) | Kd (EutV [3]) | binding signal (EutV R142A) | binding signal (EutV Y164A) | binding signal (EutV E160A) | binding signal (EutV K143A/K147A)
P1 hairpin | 6 µM |  |  |  |  |  |  |  | 
P2 hairpin | 3.1 µM |  |  |  |  |  |  |  | 
EutP RNA, 3' biotin (structured_RNA) RNA: AGAAUCAGAAACACAAUGGCGUGUUUUAACAAAUCGGCAAAGGAGCCCAAG |  | 2.2 ± 0.2 µM | no binding | no binding | 3.8 ± 2.1 µM | 8 fold reduction in affinity vs WT | 55 fold reduction in affinity vs WT | 60 fold reduction in affinity vs WT | 5 fold reduction in affinity vs WT
